Test results: the supplement of paper PMC10724198
± gives the standard deviation of the averaged measurements.
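Further: PSI is a weighted mean of sequencing reads over stability bins, variants kept only with over 10 reads, mCherry proximal and sfGFP distal, peptide attached via GGGS linker.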

The sequences below were run on Saccharomyces cerevisiae (assay: protein stability index of tFT-peptide fusion (C-terminal peptide) (PSI (0-1 scale)); higher = more stable (slower turnover)). Conditions: genetic background: wild type; temperature: 30 C.
With DLLYGLAMSLSN the protein stability index was 0.704 ± 0.012.
GDMKCVTRDSFI gave a protein stability index of 0.638 ± 0.054.
For CVLRTSQPSCPG, the protein stability index was 0.627 ± 0.023.
EALKCFADAYTC was tested, and the protein stability index was 0.661 ± 0.063.
PFVSGFGRPGYC was tested, and the protein stability index was 0.751 ± 0.039.
In the case of IDVRRAIIPGLG, the protein stability index is reported as 0.595 ± 0.011.
TAAHRASGEIAC gave a protein stability index of 0.684 ± 0.062.
Work on VGVGGRRYNVRG yielded a protein stability index of 0.66 ± 0.013.
In the case of GMNCDMCRIRTL, the protein stability index is reported as 0.683 ± 0.0088.
Work on PQDYITTCQHPT yielded a protein stability index of 0.651 ± 0.079.
Sequence GDYGRLINLVTR has a protein stability index of 0.6815 ± 0.0059.
SFFTLDRHPSYD gave a protein stability index of 0.715 ± 0.023.
GVSWSWRGCCRR gave a protein stability index of 0.7109 ± 0.0058.
RIKHKNRNKKKN showed a protein stability index of 0.791 ± 0.033.
SPLRHLPGPSFP gave a protein stability index of 0.696 ± 0.012.
RTFTLCSPSPCA was tested, and the protein stability index was 0.645 ± 0.059.
QEQITKETDLTH showed a protein stability index of 0.663 ± 0.013.
Sequence PPLARPPLPAPF has a protein stability index of 0.6998 ± 0.0022.
For VGSWVEVWGVIG, the protein stability index was 0.687 ± 0.041.
Sequence PSPCRPPHTSAG has a protein stability index of 0.646 ± 0.048.
With RLRKEKGKKIQY the protein stability index was 0.697 ± 0.073.
ANRLNASYQVSD gave a protein stability index of 0.6982 ± 0.0038.
For DVYLVGLGVWSS, the protein stability index was 0.668 ± 0.035.
For TLNSSPFTTPTI, the protein stability index was 0.717 ± 0.074.
GCRLVEGAVRLE gave a protein stability index of 0.686 ± 0.048.
With QLHTTENHHRRL the protein stability index was 0.792 ± 0.032.
VCGGGEGGERGG showed a protein stability index of 0.799 ± 0.057.
RSSNNQRARPPQ showed a protein stability index of 0.627 ± 0.028.
GEGVRGGEWGLD showed a protein stability index of 0.717 ± 0.053.
With AISAGRTFVEVV the protein stability index was 0.657 ± 0.067.
With PPGPGRAPVRPA the protein stability index was 0.623 ± 0.033.
EGWPGGRGGAGL showed a protein stability index of 0.614 ± 0.032.
KEYNIKNEREEK gave a protein stability index of 0.716 ± 0.031.
Sequence HHEDGRPTCQAN has a protein stability index of 0.677 ± 0.046.
With DIYNRNKRRDIT the protein stability index was 0.644 ± 0.0067.
LFSSLLLPNALR showed a protein stability index of 0.69 ± 0.038.
Work on KEILTNNQKGQD yielded a protein stability index of 0.6602 ± 0.0036.
PVCLHPPPSHTH showed a protein stability index of 0.737 ± 0.061.
GCLLVVAGGGRG was tested, and the protein stability index was 0.698 ± 0.069.
HGSVGRIAHVLS gave a protein stability index of 0.6672 ± 0.0062.
SKTQRAQSGNSA gave a protein stability index of 0.699 ± 0.054.
SRSGASLRAARG showed a protein stability index of 0.722 ± 0.043.
With TSGPVSCLCECL the protein stability index was 0.598 ± 0.029.
In the case of GVGGGWVGCGVI, the protein stability index is reported as 0.764 ± 0.06.
With PPPPPPPPPQPS the protein stability index was 0.67 ± 0.08.
LSFPFLFSVPFL gave a protein stability index of 0.733 ± 0.021.
Work on SPPPPTPLPPPP yielded a protein stability index of 0.6757 ± 0.0047.
For GLCGVCVLKFPR, the protein stability index was 0.759 ± 0.15.
Sequence KCSSEPMCKTCR has a protein stability index of 0.626 ± 0.053.
With RPLSPPSAPTSF the protein stability index was 0.679 ± 0.0055.
SLGLALSLRSSV gave a protein stability index of 0.6361 ± 0.0054.
GGGGGGGGRARE gave a protein stability index of 0.707 ± 0.09.
Sequence CTVPGLTPKCIY has a protein stability index of 0.581 ± 0.042.
Work on VGCRVVPGAGEV yielded a protein stability index of 0.666 ± 0.016.
KQKARRARGKEG was tested, and the protein stability index was 0.65 ± 0.024.
With VSTRVAVESPLG the protein stability index was 0.656 ± 0.03.
In the case of RIEKYKKKKETK, the protein stability index is reported as 0.712 ± 0.084.
In the case of KKKEKQRQSKRR, the protein stability index is reported as 0.689 ± 0.026.
SFRCLGFTSSRV showed a protein stability index of 0.681 ± 0.05.
GCFLSERLFTPL was tested, and the protein stability index was 0.7304 ± 0.00085.
Work on GAVWAWRRLKGG yielded a protein stability index of 0.619 ± 0.035.
With DCFSASIHYCPS the protein stability index was 0.714 ± 0.059.
With INLVKRQTVKPP the protein stability index was 0.611 ± 0.076.
KIKERKNVKGKK showed a protein stability index of 0.685 ± 0.024.
For PRSPPSPTLPHP, the protein stability index was 0.609 ± 0.027.
Sequence PSPPTPHPPCRS has a protein stability index of 0.746 ± 0.013.
Work on RGGGVVRGCSGG yielded a protein stability index of 0.679 ± 0.014.
Sequence YRSVLGREEQLI has a protein stability index of 0.7 ± 0.057.
Work on ERRGRDRSQTLR yielded a protein stability index of 0.715 ± 0.014.
RSPHLPTARSSQ gave a protein stability index of 0.723 ± 0.018.
RGSCPFQSWRCS showed a protein stability index of 0.59 ± 0.038.
Sequence KKKTRIYKRQKR has a protein stability index of 0.655 ± 0.077.
Work on SFRLLCPPPPLP yielded a protein stability index of 0.6805 ± 0.0046.
